Laboratory results from patent publication US20210079557A1, “Methods and Compositions for Protein and Peptide Sequencing” (Google LLC, published 2021).
No end group written: not given here.

T1: bradykinin peptide-oligo conjugate (synthetic, also: C-terminal Cys conjugated to 3' end of DNA oligo tail)
T1 chain: RPPGFSPFRC

T2: argipressin peptide-oligo conjugate (synthetic, UniProt P01185 P01185:20-28, ends and bridges not checked; also: oligonucleotide conjugate, site not given here)
T2 chain: CYFQNCPRG

B1: argipressin BCS aptamer 1 (ssDNA)
DNA: GAGAGTAAAGCCGATAGGATAACGAATTCGTATAGGCGCAGGATGGACTTGATAACCTTCTGCTGCGTGCCTTGATGTGCTTACTTGGCGTTCTTACCACCA
modifications: 5'-phosphate
B2: argipressin BCS aptamer 3 (ssDNA)
DNA: GAGAGTCCACGTGCACAGATAACGAATTCGTATAGGCGCAGCATACATCGGACATACATCCTGCGTGCATCCACCTTTGCATACTTGGCGTTCTTACCACCA
modifications: 5'-phosphate
B3: argipressin BCS aptamer 2 (ssDNA)
DNA: GAGAGTTAGTCAGCAGGGATAACGAATTCGTATAGGCGCAGCATTTGATTCTGCTGCGTGCATACCCCTGTGTGTTATCCCTACTTGGCGTTCTTACCACCA
modifications: 5'-phosphate

Target: T1, bradykinin peptide-oligo conjugate
Assay: no off-target hits
Conditions: tags: C-terminal Cys conjugated to DNA oligo tail tethered to flow cell (Genscript)

Binder	binding result
B1	no binding
B2	no binding
B3	no binding

Target: T2, argipressin peptide-oligo conjugate
Assay: barcode ligation sequencing on flow cell, over 100 hits on argipressin foundations
Conditions: tags: C-terminal DNA oligo tail tethered to flow cell (Genscript)

Binder	binding result
B1	binds
B2	binds
B3	binds
